Data taken from US20040219615.

B1: RIP (receptor interacting protein) (protein)
chain: MQPDMSLNVIKMKSSDFLESAELDSGGFGKVSLCFHRTQGLMIMKTVYKGPNCIEHNEALLEEAKMMNRLRHSRVVKLLGVIIEEGKYSLVMEYMEKGNLMHVLKAEMSTPLSVKGRIILEIIEGMCYLHGKGVIHKDLKPENILVDNDFHIKIADLGLASFKMWSKLNNEEHNELREVDGTAKKNGGTLYYMAPEHLNDVNAKPTEKSDVYSFAVVLWAIFANKEPYENAICEQQLIMCIKSGNRPDVDDITEYCPREIISLMKLCWEANPEARPTFPGIEEKFRPFYLSQLEESVEEDVKSLKKEYSNENAVVKRMQSLQLDCVAVPSSRSNSATEQPGSLHSSQGLGMGPVEESWFAPSLEHPQEENEPSLQSKLQDEANYHLYGSRMDRQTKQQPRQNVAYNREEERRRRVSHDPFAQQRPYENFQNTEGKGTAYSSAASHGNAVHQPSGLTSQPQVLYQNNGLYSSHGFGTRPLDPGTAGPRVWYRPIPSHMPSLHNIPVPETNYLGNTPTMPFSSLPPTDESIKYTIYNSTGIQIGAYNYMEIGGTSSSLLDSTNTNFKEEPAAKYQAIFDNTTSLTDKHLDPIRENLGKHWKNCARKLGFTQSQIDEIDHDYERDGLKEKVYQMLQKWVMREGIKGATVGKLAQALHQCSRIDLLSSLIYVSQN
B2: IKK1 (protein)
chain: MERPPGLRPGAGGPWEMRERLGTGGFGNVCLYQHRELDLKIAIKSCRLELSTKNRERWCHEIQIMKKLNHANVVKACDVPEELNILIHDVPLLAMEYCSGGDLRKLLNKPENCCGLKESQILSLLSDIGSGIRYLHENKIIHRDLKPENIVLQDVGGKIIHKIIDLGYAKDVDQGSLCTSFVGTLQYLAPELFENKPYTATVDYWSFGTMVFECIAGYRPFLHHLQPFTWHEKIKKKDPKCIFACEEMSGEVRFSSHLPQPNSLCSLVVEPMENWLQLMLNWDPQQRGGPVDLTLKQPRCFVLMDHILNLKIVHILNMTSAKIISFLLPPDESLHSLQSRIERETGINTGSQELLSETGISLDPRKPASQCVLDGVRGCDSYMVYLFDKSKTVYEGPFASRSLSDCVNYIVQDSKIQLPIIQLRKVWAEAVHYVSGLKEDYSRLFQGQRAAMLSLLRYNANLTKMKNTLISASQQLKAKLEFFHKSIQLDLERYSEQMTYGISSEKMLKAWKEMEEKAIHYAEVGVIGYLEDQIMSLHAEIMELQKSPYGRRQGDLMESLEQRAIDLYKQLKHRPSDHSYSDSTEMVKIIVHTVQSQDRVLKELFGHLSKLLGCKQKIIDLLPKVEVALSNIKEADNTVMFMQGKRQKEIWHLLKIACTQSSARSLVGSSLEGAVTPQTSAWLPPTSAEHDHSLSCVVTPQDGETSAQMIEENLNCLGHLSTIIHEANEEQGNSMMNLDWSWLTE

Target: RAP-2 (RIP-associated protein-2), full-length
Sequence (chain, as listed by the source): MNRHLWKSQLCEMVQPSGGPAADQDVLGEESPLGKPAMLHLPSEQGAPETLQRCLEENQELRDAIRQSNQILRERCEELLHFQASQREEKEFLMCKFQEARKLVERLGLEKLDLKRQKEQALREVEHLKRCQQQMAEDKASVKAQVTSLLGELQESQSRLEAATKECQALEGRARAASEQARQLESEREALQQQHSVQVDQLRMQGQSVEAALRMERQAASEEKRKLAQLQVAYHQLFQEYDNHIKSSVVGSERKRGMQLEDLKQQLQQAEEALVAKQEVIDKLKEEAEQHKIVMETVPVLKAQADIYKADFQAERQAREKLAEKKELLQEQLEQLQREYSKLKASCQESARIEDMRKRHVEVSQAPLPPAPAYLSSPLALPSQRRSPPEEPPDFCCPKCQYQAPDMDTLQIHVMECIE

| Protein | in vitro immunocomplex kinase assay | in vitro phosphorylation of the immunoprecipitated complex |
| --- | --- | --- |
| B1 | over-expressed RIP did not phosphorylate RAP-2 |  |
| B2 |  | RAP-2 becomes phosphorylated |
